For assay [1], the target named is T1, Fc tagged human CD137 (R&D Systems, cat. 838-4B-100) (human, UniProt Q07011 24-186).
T1 construct: also called CD137 Fc chimera; human CD137-Fc chimeric protein
The assay is described as follows: SPR T200, Fc-tagged antigen captured, scFv analyte. The protocol: (§1) Affinity of the humanized scFvs to human CD137 was determined by SPR analysis on a T200 device (Biacore, GE Healthcare). […] After each analyte injection cycle, the anti-human Fc-specific IgG was regenerated and new antigen was captured. The scFvs were injected as analyte using a dose response multi-cycle kinetic assay over the captured CD137 with concentrations of the analyte ranging from 0.19 to 45 nM (three-fold dilutions steps) diluted in running buffer. Association and dissociation time were set to 300 s and 720 s, respectively. Obtained sensorgrams were fitted using the 1:1 binding model.

The target of assay [2] is T2, cynomolgus monkey Fc-tagged CD137 (R&D Systems, cat. 9324-4B-100) (cynomolgus monkey, UniProt A9YYE7 24-186).
T2 construct: also called cynomolgus CD137-Fc chimeric protein
In words: SPR T200, Fc-tagged antigen captured, scFv analyte. The protocol:
as §1
Cross-reactivity to cynomolgus CD137 was measured with cynomolgus monkey Fc-tagged CD137 (R&D Systems, cat. 9324-4B-100) in a similar assay as used to measure binding to human CD137.

These results are taken from patent US20200332015A1 (NAMAB THERAPEUTICS, published 2020).

T2 sequence (A9YYE7 entry or part of it): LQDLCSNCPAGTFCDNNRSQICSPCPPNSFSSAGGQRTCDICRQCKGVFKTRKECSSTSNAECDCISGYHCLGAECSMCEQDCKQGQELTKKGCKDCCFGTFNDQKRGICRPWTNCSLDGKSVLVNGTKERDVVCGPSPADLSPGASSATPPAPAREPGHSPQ

B1: PRO1181 (38-02-A04-sc05, IF graft, VH4, scFv) (scFv)
scFv: DIQMTQSPSSLSASVGDRVTITCQASQSINNVLAWYQQKPGKPPKLLIYRASTLASGVPSRFSGSGSGTDFTLTISSLQPEDFATYYCQSSYGNYGDFGTGTKVTVLGGGGGSGGGGSGGGGSGGGGSQVQLQESGPGLVKPSETLSLTCKVSGFSFSNSYWICWVRQPPGKGLEWIGCTFVGSSDSTYYANWAKGRVTISVDSSKNQVSLKLSSVTAADTAVYFCARHPSDAVYGYANNLWGQGTLVTVSS
notes: VL-linker-VH
Turning to B1, in assay [1], the Kd is 1.37 nM, the koff was 0.00048 s⁻¹ and the kon is 350000 M⁻¹ s⁻¹. In assay [2], this molecule displayed a Kd of 1.36 nM, a koff of 0.00053 s⁻¹ and a kon of 388000 M⁻¹ s⁻¹.

B2: PRO1182 (38-02-A04-sc06, FULL graft, VH4, scFv) (scFv)
scFv: DLQMTQSPSSLSASVGDRVTITCQASQSINNVLAWYQQKPGKPPKLLIYRASTLASGVPSRFSGSGSGTDFTLTISSLQPEDFATYYCQSSYGNYGDFGTGTKVTVLGGGGGSGGGGSGGGGSGGGGSQVQLQESGPGLVKPSETLSLTCKASGFSFSNSYWICWVRQPPGKGLEWIGCTFVGSSDSTYYANWAKGRVTISKDSSKNQVSLKLSSVTAADTAVYFCARHPSDAVYGYANNLWGQGTLVTVSS
notes: VL-linker-VH
With B2, in assay [1], the affinity, expressed as Kd, was 0.0179 nM; the koff turned out to be 2.58e-05 s⁻¹; the kon was 1.44e+06 M⁻¹ s⁻¹. For the same molecule, in assay [2], the Kd came out at 0.0142 nM, the koff is 1.83e-05 s⁻¹ and the kon came to 1.29e+06 M⁻¹ s⁻¹.
